Values joined by “and” are separate entries in the source; they are usually repeats but may differ in a detail not shown here. Identical values can stand only once. Starred links: 1 amine or outer side, 2 acyl side, 3 side chain; linkers in the order of their positions; H or OH if unused. Positions of bridges follow the written chain, without caps; N, C: chain ends. Non-standard residues stand in square brackets, D forms with d. Primed or numbered codes have the meaning given here. Chains are numbered I, II in the order given. No end group written: not given here. *: point of attachment. dLys(PYA)″ = D-lysine N6-(4-pentynoyl) (D-Lys(PYA)), C#CCCC(=O)NCCCC[C@@H](N[*:1])C(=O)[*:2]; TATA = O=C(CC[*:1])N1CN(C(=O)CC[*:2])CN(C(=O)CC[*:3])C1; γGlu = O=C(O)[C@H](CCC(=O)[*:2])N[*:1]; 1Nal = N[C@@H](Cc1cccc2ccccc12)C(=O)O; d1Nal = N[C@H](Cc1cccc2ccccc12)C(=O)O; Palmitoyl = CCCCCCCCCCCCCCCC(=O)*; Hyp = O=C(O)[C@@H]1C[C@@H](O)CN1; hArg = N=C(N)NCCCC[C@H](N)C(=O)O; tBuAla = CC(C)(C)C[C@H](N)C(=O)O; dK(PYA) = not defined here; NMeA = CN[C@@H](C)C(=O)O; Nle = CCCC[C@H](N)C(=O)O; Pent4ynoyl = C#CCCC(=O)*; dNMeA = CN[C@H](C)C(=O)O
Assays:
[1] = target: T1, CD137 on Jurkat reporter cells (Promega kit CS196005) (UniProt Q07011 24-255, limits assumed); experiment: cell-based or functional assay
[2] = target: T1, CD137 on Jurkat reporter cells (Promega …); experiment: cell-based or functional assay; remark: listed apart in the source
human EphA2 protein [3] = target: T2, human EphA2 protein (human, UniProt P29317 25-534, limits assumed, biotinylated); experiment: SPR (Biacore T200), biotinylated EphA2 captured on streptavidin chip, 25° C.
T2 construct: Construct not described; also called EphA2 (human)

human EphA2 protein [4] = target: T2, human EphA2 protein; experiment: SPR (Biacore), biotinylated human EphA2 captured on a streptavidin chip, BCY13272 as analyte, 1:1 fit
[5] = target: T3, human CD137 extracellular domain (human, UniProt Q07011 24-186, biotinylated where captured on the streptavidin chip); experiment: SPR (Biacore), biotinylated human CD137 captured on a streptavidin chip, BCY13272 as analyte, 1:1 fit; avidity from two CD137 bicycles
T3 construct: extracellular domain; Section 17 says only 'Recombinant human CD137 (R&D systems)'; also called CD137 (human); Recombinant human CD137 (R&D systems)

[6] = target: T3, human CD137 extracellular domain; experiment: SPR (Biacore), biotinylated human CD137 captured on a streptavidin chip, BCY13272 as analyte, 1:1 fit; the text says the reported KD may be an overestimation (avidity)
[7] = target: T3, human CD137 extracellular domain; experiment: SPR (Biacore), biotinylated human CD137 captured on a streptavidin chip, BCY13272 as analyte, 1:1 fit; the text calls the off rate very slow (avidity from two CD137 bicycles)
[8] = target: T1, CD137 on Jurkat reporter cells (Promega …); experiment: cell-based or functional assay; remark: listed apart in the source
[9] = target: T4, OX40 on Jurkat reporter cells (Promega CS197704) (UniProt P43489 29-277); experiment: cell-based or functional assay
T4 sequence (looked up): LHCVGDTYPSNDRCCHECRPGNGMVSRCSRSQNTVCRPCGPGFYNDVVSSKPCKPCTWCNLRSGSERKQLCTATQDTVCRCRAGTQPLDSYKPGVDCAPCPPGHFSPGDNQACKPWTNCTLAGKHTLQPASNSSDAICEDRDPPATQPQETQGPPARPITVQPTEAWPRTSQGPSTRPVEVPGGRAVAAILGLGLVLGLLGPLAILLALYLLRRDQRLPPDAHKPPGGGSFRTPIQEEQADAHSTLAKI

[10] = target: T1, CD137 on Jurkat reporter cells (Promega …); experiment: cell-based or functional assay; remark: listed apart in the source

T2 sequence (P29317 25-534 limits assumed): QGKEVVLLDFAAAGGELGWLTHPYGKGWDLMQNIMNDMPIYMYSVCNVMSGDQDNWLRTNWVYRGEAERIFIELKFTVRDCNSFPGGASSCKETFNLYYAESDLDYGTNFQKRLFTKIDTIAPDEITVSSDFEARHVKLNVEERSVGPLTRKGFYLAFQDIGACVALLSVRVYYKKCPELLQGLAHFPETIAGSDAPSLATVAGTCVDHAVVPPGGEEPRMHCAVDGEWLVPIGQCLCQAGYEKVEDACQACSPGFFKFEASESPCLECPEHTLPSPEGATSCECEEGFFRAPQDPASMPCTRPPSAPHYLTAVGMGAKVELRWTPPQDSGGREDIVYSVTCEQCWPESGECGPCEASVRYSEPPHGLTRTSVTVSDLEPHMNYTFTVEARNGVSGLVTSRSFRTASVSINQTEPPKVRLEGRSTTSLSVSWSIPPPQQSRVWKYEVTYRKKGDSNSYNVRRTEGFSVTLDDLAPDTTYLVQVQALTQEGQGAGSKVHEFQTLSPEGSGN
T1 sequence (Q07011 24-255 limits assumed): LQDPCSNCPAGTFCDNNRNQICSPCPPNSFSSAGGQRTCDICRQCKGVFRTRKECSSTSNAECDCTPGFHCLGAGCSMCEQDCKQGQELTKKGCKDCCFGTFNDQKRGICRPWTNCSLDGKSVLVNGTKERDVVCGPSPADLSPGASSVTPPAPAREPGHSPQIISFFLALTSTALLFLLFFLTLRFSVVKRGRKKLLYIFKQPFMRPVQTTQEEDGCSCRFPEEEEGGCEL
T3 sequence (Q07011 24-186): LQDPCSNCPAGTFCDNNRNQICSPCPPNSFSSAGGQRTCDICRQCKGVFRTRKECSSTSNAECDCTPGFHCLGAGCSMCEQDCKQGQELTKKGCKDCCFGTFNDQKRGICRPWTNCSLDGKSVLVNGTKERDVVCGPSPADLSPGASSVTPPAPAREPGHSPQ

B1: BCY12761 (peptide)
peptide 1: CP[1Nal]DCM[hArg]DWSTP[Hyp]WC
peptide 2: Ac-C[tBuAla]PE[dK](Pent4ynoyl)PYCFAD[dNMeA]Y[Nle]C
modifications: linker I:1-I:5-I:15, II:1-II:8-II:15 via TATA; not fully specified (some residues, bridges); also: chain 1 N-terminus and chain 2 dLys(PYA)4 joined by N-(acid-PEG3)-N-bis(PEG3-azide) linker
EC50 (nM), HT1376 co-culture [1]: 0.37 nM | Emax (fold induction over background), HT1376 [1]: 76 fold over background

B2: BCY12487 (peptide)
peptide 1: CP[1Nal]DCM[hArg]DWSTP[Hyp]WC
peptide 2: Ac-C[tBuAla]PE[dK](Pent4ynoyl)PYCFAEPY[Nle]C
modifications: linker I:1-I:5-I:15, II:1-II:8-II:15 via TATA; not fully specified (some residues, bridges); also: chain 1 N-terminus and chain 2 dLys(PYA)4 joined by N-(acid-PEG3)-N-bis(PEG3-azide) linker
EC50 (nM), HT1376 co-culture [1]: 13 nM | Emax (fold induction over background), HT1376 [1]: 12 fold over background

B3: BCY12589 (peptide)
peptide 1: {Palmitoyl-γGlu-γGlu}-CP[1Nal]KCM[hArg]DWSTP[Hyp]WC
peptide 2: Ac-C[tBuAla]PE[dK](Pent4ynoyl)PYCFADPY[Nle]CA
modifications: linker I:1-I:5-I:15, II:1-II:8-II:15 via TATA; not fully specified; also: chain 2 present twice on linker, Nectin-4:CD137 1:2, linker at B5 via N-(acid-PEG3)-N-bis(PEG3-azide), other end not in the chain
EC50 (nM), HT1376 co-culture [1]: 0.44 nM | Emax (fold induction over background), HT1376 [1]: 79 fold over background

B4: BCY12490 (peptide)
peptide 1: CPXKCMXDWSTPXWC
peptide 2: CXPEXPYCFADPYXCA
modifications: BCY8928: Ac-(SEQ ID NO: 11)-A; TATA; linker at dLys(PYA)4; BCY12024: Ac-(SEQ ID NO: 14); TATA; linker at dLys3
EC50 (nM), HT1376 co-culture [1]: 0.23 nM | Emax (fold induction over background), HT1376 [1]: 70 fold over background

B5: heterotandem bicyclic peptide complex BCY13272 (peptide)
peptide 1: A[hArg]DC[Hyp]LVNPLCLEP[d1Nal]WTC
peptide 2: Ac-C[tBuAla]PE[dLys(PYA)″]PYCFADPY[Nle]CA
modifications: linker I:4-I:11-I:18, II:1-II:8-II:15 via TATA; not fully specified (bridges); also: 1:2 complex: BCY13118 + 2x BCY8928
notes: also called EphA2/CD137 heterotandem
EC50 (nM), A549 co-culture [2]: 0.147 nM and 0.107 nM and 0.132 nM | Geo mean EC50/cell line, A549 [2]: 127 pM | Geo mean EC50/cell line, HT-29 [2]: 279 pM | Geo mean EC50/cell line, PC-3 [2]: 117 pM | Kd (human EphA2 protein [3]): 2000 pM | koff (human EphA2 protein [4]): 0.00102 s⁻¹ | kon (human EphA2 protein [4]): 502000 M⁻¹ s⁻¹ | kon [5]: 302000 M⁻¹ s⁻¹ | Kd [6]: ≤ 33.1 pM | koff [7]: ≤ 1e-05 s⁻¹

B6: BCY12760 (peptide)
peptide 1: CP[1Nal]DCM[hArg]DWSTP[Hyp]WC
peptide 2: Ac-C[tBuAla]PE[dK](Pent4ynoyl)PYCFAD[NMeA]Y[Nle]C
modifications: linker I:1-I:5-I:15, II:1-II:8-II:15 via TATA; not fully specified (some residues, bridges); also: chain 1 N-terminus and chain 2 dLys(PYA)4 joined by N-(acid-PEG3)-N-bis(PEG3-azide) linker
EC50 (nM), HT1376 co-culture [1]: 1.8 nM | Emax (fold induction over background), HT1376 [1]: 76 fold over background

B7: BCY13583 (peptide)
peptide 1: CP[1Nal][dD]CM[hArg]DWSTP[Hyp]WC
peptide 2: Ac-C[tBuAla]PE[dK(PYA)]PYCFADPY[Nle]CA
peptide 3: Ac-C[tBuAla]PE[dK(PYA)]PYCFADPY[Nle]CK
modifications: linker I:1-I:5-I:15 via TATA; linker II:1-II:8-II:15, III:1-III:8-III:15 via TATA (inferred); reading uncertain; also: Alexa Fluor 488 label, site not given here, linker at chain B 5 at chain C 5 to a chain's N-terminus via N-(acid-PEG3)-N-bis(PEG3-azide)
Arithmetic mean EC50 (nM), HT1376 co-culture [8]: 1.7 nM | Arithmetic mean EC50 (nM), MDA-MB-468 co-culture [8]: 0.84 nM | EC50 (nM), HT1376 co-culture [1]: 1.7 nM | Emax (fold induction over background), HT1376 [1]: 63 fold over background

B8: BCY12967 (peptide)
peptide 1: CP[1Nal]DCM[hArg]DWSTP[Hyp]WC
peptide 2: ACLYSPCWHPLNDCAK(Pent4ynoyl)
modifications: linker I:1-I:5-I:15 via TATA; linker II:2-II:7-II:14 via TATA (inferred); not fully specified (some residues); also: chain 1 N-terminus and chain 2 C-terminal Lys(PYA) joined by N-(acid-PEG3)-N-bis(PEG3-azide) linker
EC50 (nM), Promega OX40 cell-activity assay in co-culture with tumor cells [9]: 0.83 nM

B9: BCY11780 (peptide)
peptide 1: SDKCSAGWLTMCQXLHLCPSH
peptide 2: CXPEXPYCFADPYXCA
modifications: BCY8928: Ac-(SEQ ID NO: 11)-A; TATA; linker at dLys4; BCY10861: Ac-SDK-(SEQ ID NO: 53)-PSH; TATA; linker at Lys(PYA)9
EC50 (nM), RKO co-culture [10]: 1.9 nM | Fold Induction over background, RKO co-culture [10]: 13 fold

Source: US20230129258A1 (Bicycle, published 2023)
